Data from patent publication US20020115613A1, “Treatment of prostate cancer” (priority 2001, published 2002).

How the values were obtained:
Type in all cases: cell-based
[1] = tested on: LNCaP C4-2 cells; assay: Apoptosense assay (M30 ELISA, cleaved cytokeratin 18)
Procedure: LNCaP were obtained from American Type Culture Collection (Rockville, Md.) and LNCaP C4-2 cells were purchased from Urocor Inc., Oklahoma City, Okla. Cells were grown in RPMI 1640 medium supplemented with 10% (LNCaP) or 5% (LNCaP C4-2) fetal bovine serum (Hyclone, Logan, Utah) and grown in the presence of 5% CO2 at 37° C. Cells were treated with 10 μM Mifepristone (Sigma, St. Louis, Mo.) for three days or with increasing concentrations (from 200 ng/ml to 600 ng/ml) of TRAIL (Biomol Research Laboratories, Inc., Plymouth Meetings, Pa.) for varying time intervals 2, 4, 6, 8, 16, 20 and 24 hours (hr). Thus, for treatment with Mifepristone, cells were treated with Mifepristone for three days and then some cells treated (without washing) with TRAIL for indicated periods. Upon completion of the experiment, cells were harvested, and total proteins, cytosol or mitochondrial fractions were isolated as described below. At least three experiments were conducted with a minimum of four plates per treatment per experiment. Two methods were used to measure induction of apoptosis by drug treatment: the MTT assay and the Apoptosense assay. The MTT assay measures mitochondrial enzyme activity and is indicative of the number of surviving cells. […] Cells were plated in petri dishes and after completion of the treatment, cells were harvested and total protein extracted as described below. […] Color was developed by adding tetramethylbenzidine solution and the optical density of the bound antibody was determined at 450 nm on a Spectra MAX 340 microplate reader (Molecular Devices, Menlo Park, Calif.). Standard solution supplied by the supplier was used for generating standard curves.

[2] = tested on: LNCaP C4-2 cells; assay: Western blotting of death receptors, caspases, Bid, cytochrome c, Akt; details: LNCaP C4-2; for DR4 levels: FIG. 2B
Procedure: (§1) LNCaP were obtained from American Type Culture Collection (Rockville, Md.) and LNCaP C4-2 cells were purchased from Urocor Inc., Oklahoma City, Okla. Cells were grown in RPMI 1640 medium supplemented with 10% (LNCaP) or 5% (LNCaP C4-2) fetal bovine serum (Hyclone, Logan, Utah) and grown in the presence of 5% CO2 at 37° C. Cells were treated with 10 μM Mifepristone (Sigma, St. Louis, Mo.) for three days or with increasing concentrations (from 200 ng/ml to 600 ng/ml) of TRAIL (Biomol Research Laboratories, Inc., Plymouth Meetings, Pa.) for varying time intervals 2, 4, 6, 8, 16, 20 and 24 hours (hr). Thus, for treatment with Mifepristone, cells were treated with Mifepristone for three days and then some cells treated (without washing) with TRAIL for indicated periods. Upon completion of the experiment, cells were harvested, and total proteins, cytosol or mitochondrial fractions were isolated as described below. At least three experiments were conducted with a minimum of four plates per treatment per experiment.
(§2) For experiments using inhibitors, the cells were pre-treated with increasing concentrations of the inhibitors (10 μM to 100 μM) for one hr and then with TRAIL. Caspase-8-specific (Z-IETD-FMK) and caspase-9-specific ([…]) inhibitors were purchased from Enzyme Systems Products, Livermore, Calif. The inhibitors were dissolved in DMSO; to limit cellular toxicity, care was taken not to exceed 0.2% DMSO in the culture medium. Appropriate controls included vehicle treated cells with or without the inhibitors.
(§3) Cells were harvested by trypsinization, washed in 1×PBS and cell pellets resuspended in lysis buffer (100 mM Tris-HCl pH 8.0, 0.1% Triton X 100 and protease inhibitor cocktail from Roche Diagnostic Corporation, Indianapolis, Ind.). Cells were incubated over ice for 30 min and centrifuged at 10,000 g at 4° C. for 10 min. The supernatant was collected and the protein concentration estimated using Bio-Rad protein reagent (Bio-Rad Laboratories, Hercules, Calif.).
(§4) Proteins (50 μg, unless stated otherwise) were separated on NuPAGE 10% Bis-Tris gels (Novex pre-cast mini gels, InVitrogen, Carlsbad, Calif.) at 100 volts for 1 hour in the presence of 1×MES-SDS running buffer (InVitrogen, Carlsbad, Calif.). Separated proteins were transferred to (PVDF) membranes (Bio-Rad Laboratories, Hercules, Calif.) at 42 volts for 2.5 hr using a Novex XCell II blotting apparatus in MES transfer buffer in the presence of NuPAGE antioxidant. Transfer of the proteins to the polyvinylidene difluoride (PVDF) membrane was confirmed by staining with Ponceau S (Sigma, St. Louis, Mo.). The blots were blocked in 5% non-fat dry milk in TBS, washed twice for 10 min each with TBS containing 0.1% Tween-20 and incubated for 2 hr at RT with primary antibody diluted in TBS containing 0.5% milk.
(§5) The following antibodies were used in the immunoblots: DR4, DR5 and cytochrome c (Imgenex, San Diego, Calif.), BID (BioSource International, Camarillo, Calif.), caspases-8, -9, and Akt (Cell Signaling Technology, Beverely, Mass.), caspase-3 (BD Pharmingen, San Diego, Calif.) Iκβ and XIAP (Cell Signaling Technology, Beverly, Mass.), cFLIP (StressGen Biotechnology Corp, Victoria, Canada), actin (Sigma Chemical Co., St. Louis, Mo.) and Cox II (Molecular Probes, Eugene, Oreg.). Immunoreactive bands were visualized using ECL detection system (Amersham, Pharmacia Biotech, Arlington Heights, Ill.) and signals were developed after exposure to X-ray film (X-Omat films, Eastman Kodak Company, Rochester, N.Y.).
(§6) For separation of mitochondrial and cytosolic fractions, cells were trypsinized, centrifuged at 600 g for 10 min at 4° C., washed twice in ice-cold PBS and re-suspended in buffer A (20 mM HEPES-KOH, pH 7.2, 10 mM KCl, 1.5 mM MgC12, 1 mM sodium-EDTA, 1 mM sodium-EGTA, 250 mM sucrose and protease inhibitor cocktail). Cells were homogenized on ice with a glass Dounce homogenizer (30 strokes) and were centrifuged at 750 g for 5 min at 4° C. […]

[3] = tested on: LNCaP cells; assay: as above; details: LNCaP; for DR4 levels / expression of DR5: FIG. 2A
Procedure: as §1, §2, §3, §4, §5, §6

Row | Molecule | M30 activity (in words) [1] | DR4 levels [2] | activation of procaspase-8 ([2]; FIG. 3B) | induction of caspase-3 ([2]; FIG. 3D) | DR4 levels [3] | expression of DR5 [3] | activation of procaspase-8 ([3]; FIG. 3A) | activation of caspase-3 ([3]; FIG. 3C) | activation of caspase-7 in TRAIL-treated cells after pre-treatment with Mifepristone ([3]; Mifepristone pre-treatment, then TRAIL, FIG. 3C) | M30 activity ([1]; between 8 hr to 20 hr treatment, FIG. 1D) | cytochrome c levels in cytosol ([2]; FIG. 5B) | phosphorylated Akt ([3]; 15 min, FIG. 8) | truncated Bid (tBid) ([3]; FIG. 3A) | activation of caspase-7 ([3]; FIG. 3C) | cytochrome c levels in cytosol ([3]; FIG. 5A)
1 | CC#C[C@]1(O)CC[C@H]2[C@@H]3CCC4=CC(=O)CCC4=C3[C@@H](c3ccc(N(C)C)cc3)C[C@@]21C [Mifepristone] | lower M30 activity | did not show significant changes | small increase in the activation of caspase-8 | nor is it effective in inducing caspase-3 | did not show significant changes | significant increase | small increase in the activation of caspase-8 | activates caspase-3 | activated caspase-7 by 4 hr | – | – | – | – | – | –
2 | Tumor necrosis factor α—Related Apoptosis Inducing Ligand (protein, UniProt P50591 1-281, looked up, 281 amino acid type II transmembrane protein of the tumor necrosis factor α family; purchased from Biomol) Tumor necrosis factor ligand …: MAMMEVQGGPSLGQTCVLIVIFTVLLQSLCVAVTYVYFTNELKQMQDKYSKSGIACFLKEDDSYWDPNDEESMNSPCWQVKWQLRQLVRKMILRTSEETISTVQEKQQNISPLVRERGPQRVAAHITGTRGRSNTLSSPNSKNEKALGRKINSWESSRSGHSFLSNLHLRNGELVIHEKGFYYIYSQTYFRFQEEIKENTKNDKQMVQYIYKYTSYPDPILLMKSARNSCWSKDAEYGLYSIYQGGIFELKENDRIFVSVTNEHLIDMDHEASFFGAFLVG | – | did not show significant changes | – | – | did not show significant changes | did not increase significantly | decrease in the 57 KDa procaspase-8 protein as early as 2 hr | yielded cleaved 17 KDa caspase-3 product by 2 hr | – | 1.4-2.0 U/ug | increased cytochrome c levels in cytosol within 15 min | slightly decreased phosphorylated Akt | tBid was noted by 2 hr | activated caspase-7 by 20 hr | increased cytochrome c levels in cytosol within 15 min
